Our source for the Kd values is patent publication US20160052993A1.

The target in experiment [1] is single-chain human FcRn, FLAG/His-tagged (human) (UniProt P61769). Description: ELISA, HSA variant immobilised, schFcRn titrated, pH 5.5 (asterisk). (In general: An ELISA detects its analyte on a solid surface through an enzyme-linked reagent.)
The next experiment concerns the target hFcRn (human) (UniProt P61769). Description: ELISA. As to conditions: other; remark: other sources report otherwise.

hFcRn (human), sequence (P55899 24-297, chain 1 of 2): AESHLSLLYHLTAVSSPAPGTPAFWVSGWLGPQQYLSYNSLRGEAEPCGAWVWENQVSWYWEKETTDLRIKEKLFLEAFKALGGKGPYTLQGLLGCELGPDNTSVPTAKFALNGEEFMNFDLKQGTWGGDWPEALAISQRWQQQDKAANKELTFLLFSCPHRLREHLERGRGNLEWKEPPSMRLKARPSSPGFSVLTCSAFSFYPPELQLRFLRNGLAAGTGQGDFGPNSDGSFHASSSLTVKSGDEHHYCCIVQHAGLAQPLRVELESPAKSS
hFcRn (human), sequence (P61769 21-119, chain 2 of 2): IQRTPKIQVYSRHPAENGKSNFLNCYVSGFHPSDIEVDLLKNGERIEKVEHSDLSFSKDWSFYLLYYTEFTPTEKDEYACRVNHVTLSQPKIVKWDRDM

In the case of “HSA18 (V424I) (from UniProt P02768 25-609)”, the Kd – broadly, the free concentration of one partner at which half of the binding sites on the other are occupied at equilibrium, for simple one-to-one binding – in experiment [1] came out at 250 nM.
As to “HSA13+H510F (from UniProt P02768 25-609)”, the Kd with hFcRn (human) was found to be 32 nM.
For the substance “HSA13+H535F (from UniProt P02768 25-609)”, the Kd with hFcRn (human) was 91.8 nM.
